Values belong to the binder of their own block, whether it stands above or below them.
What was measured:
human IL-13 wild type = target: T1, human IL-13 wild type (human, UniProt P35225 35-146); assay: competition: human IL-13 to human IL-13Rα2, cell surface-based and ELISA-based RBA
T1 construct: also called h IL-13; hIL-13 wt

[1] = target: T2, human IL-13 variant (R130Q of SEQ ID NO 1) (human, UniProt P35225 35-146); assay: SPR (Biacore), captured mAb
T2 construct: Recombinant purified protein (Peprotech for immunisation); also called h IL-13v; hIL-13v
T2 sequence (P35225 35-146 limits assumed, stated change not applied): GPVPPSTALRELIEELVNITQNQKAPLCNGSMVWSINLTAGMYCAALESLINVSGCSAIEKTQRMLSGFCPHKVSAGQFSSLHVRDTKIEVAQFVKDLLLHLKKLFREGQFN
Protocol: The BIACORE assay (Biacore, Inc, Piscataway, N.J.) determines the affinity of antibodies with kinetic measurements of on-, off-rate constants. […] All chemicals were obtained from Biacore® AB (Uppsala, Sweden) or otherwise from a different source as described in the text. Approximately 5000 RU of goat anti-mouse IgG, (Fcγ), fragment specific polyclonal antibody (Pierce Biotechnology Inc, Rockford, Ill.) diluted in 10 mM sodium acetate (pH 4.5) was directly immobilized across a CM5 research grade biosensor chip using a standard amine coupling kit according to manufacturer's instructions and procedures at 25 μg/ml. […] Unmodified carboxymethyl dextran without goat anti-mouse IgG in flow cell 1 and 3 was used as the reference surface. For kinetic analysis, rate equations derived from the 1:1 Langmuir binding model were fitted simultaneously to association and dissociation phases of all eight injections (using global fit analysis) with the use of Biaevaluation 4.0.1 software. […] The association and dissociation rate constants, kₒₙ (unit M⁻¹s⁻¹) and koff (unit s⁻¹) were determined under a continuous flow rate of 25 μl/min Rate constants were derived by making kinetic binding measurements at ten different antigen concentrations ranging from 10-200 nM. […] Binding is recorded as a function of time and kinetic rate constants are calculated.

T1 sequence (P35225 other isoform, or with tags, fused parts or gaps limits assumed): as the sequence (P35225 35-146 limits assumed, stated change not applied) above, with Q110R counted along it

- IC50 (human IL-13 wild type): 1 to 3 nM
B1: 13C5.5 (antibody, human IgG1, V domains shown)
VH: EVTLRESGPGLVKPTQTLTLTCTLYGFSLSTSDMGVDWIRQPPGKGLEWLAHIWWDDVKRYNPALKSRLTISKDTSKNQVVLKLTSVDPVDTATYYCARTVSSGYIYYAMDYWGQGTLVTVSS
VL: DIQMTQSPSSLSASVGDRVTISCRASQDIRNYLNWYQQKPGKAPKLLIFYTSKLHSGVPSRFSGSGSGTDYTLTISSLQPEDIATYYCQQGNTLPLTFGGGTKVEIK
notes: Humanized; also called humanized 13C5

- kon [1]: 106000 M⁻¹ s⁻¹
B2: 1B6 (antibody, V domains shown)
VH: QVQLKESGPGLVAPSQSLSITCTVSGFSLTGYGVNWVRQPPGKGLEWLGMIWGDERIDYNSALKSRLSITKDNSKSQVFLKMNSLQTDDTGRYFCARDGYFPYAMDYWGQGTSVTVSS
VL: NIVLTQSPASLAVSLGQRATISCRASETVDSYGKSYLHWYQQKPGQPPKLLIYLASNLESGVPARFSGSGSRTDFTLIIDPVEADDAATYYCQQNNEGPRTFGGGTKLEIKR
notes: Murine monoclonal, IgG1κ
